US12178871B2 (priority 2018, dated 2024)

Key:
[1] = in vivo; cited from earlier work
[2] = system: mouse lung cancer LL2 cell; experiment: LL2 lung cancer tumor-bearing mouse model; format: in vivo; conditions: cisplatin 5 mg/kg, tail vein injection once a week
Text: The tumor cells in this model grew rapidly, with tumor volume of 2201.9 mm^3±68.01 mm^3 on the 14th day after the inoculation and the experiment was over. […] As explanation, the cisplatin group is more likely to show efficacy in this model with very rapid cell division.

[3] = system: influenza virus subtype A mice-lung adaptive strain FM1; conditions: mouse, in vivo

## polyinosinic-polycytidylic acid with poly-L-lysine and carboxymethyl cellulose [PICLC]
[1]
  fever: 100%
  hypotension: 50%
  myalgia: 50%

## N.N.[Cl][Pt][Cl] [cisplatin]
[2]
  T/Cb (%): 28.9%
  TV at day 14: 637.79 ± 62.87 mm^3

## NC(=O)c1ncn([C@@H]2O[C@H](CO)[C@@H](O)[C@H]2O)n1 [Ribavirin]
[3]
  X^2: 1.64
